This is an account of results in the supplement of paper PMC10567573.

First the molecules themselves.
B1: ATL3 (parent)
chain: QELEEEIKELYENFCKHNGSKNVF
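Also: lentivirally expressed fusions sorted by FACS into six bins by GFP to DsRed ratio, PSI derived from sequencing read proportions per bin multiplied by bin number.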

The series covers variants of B1. Nature of the series: protein stability index of a GFP-peptide fusion (GPS, HEK-293T) (PSI 1-6); higher = more stable. The conditions noted are these: c terminus: a fixed tail appended.
As to QELEEEIKELYENFGKHNGSKNVF [C15G], the protein stability index was 4.07.
Regarding QELEEEIKELYENFRKHNGSKNVF [C15R], the protein stability index stood at 3.3.
In the case of QELEEEIKELYENFVKHNGSKNVF [C15V] it was 2.27; in that of QELEEEIKELYENFWKHNGSKNVF [C15W], 3.73; in that of QELEEEIKELYENFQKHNGSKNVF [C15Q], 3.67.
With QELEEEIKELYENFMKHNGSKNVF [C15M], the protein stability index came to 2.02.
Next, QELEEEIKELYENFSKHNGSKNVF [C15S]: 3.89; QELEEEIKELYENFHKHNGSKNVF [C15H]: 4.12; QELEEEIKELYENFIKHNGSKNVF [C15I]: 2.07.
In the case of QELEEEITELYENFCKHNGSKNVF [K8T] it was 3.31.
In the case of QELEEEIGELYENFCKHNGSKNVF [K8G] it was 3.67; in that of QELEEEICELYENFCKHNGSKNVF [K8C], 3.01.
In the case of QELEEEIYELYENFCKHNGSKNVF [K8Y], the protein stability index is 2.37.
In the case of QELEEEILELYENFCKHNGSKNVF [K8L] it was 2.24; in that of QELEEEIMELYENFCKHNGSKNVF [K8M], 2.53.
In the case of QELEEEIEELYENFCKHNGSKNVF [K8E] it was 3.63; in that of QELEEEIHELYENFCKHNGSKNVF [K8H], 2.86.
Next, QELEEEIFELYENFCKHNGSKNVF [K8F]: 2.48.
With QELEEEIIELYENFCKHNGSKNVF [K8I], the protein stability index was determined as 2.36.
Next, QELEEEIRELYENFCKHNGSKNVF [K8R]: 2.24; QELEEEISELYENFCKHNGSKNVF [K8S]: 3.37; QELEEEIPELYENFCKHNGSKNVF [K8P]: 4.37.
For the variant QELEEEIQELYENFCKHNGSKNVF [K8Q], the protein stability index stood at 3.01.
In the case of QELEEEINELYENFCKHNGSKNVF [K8N] it was 2.45.
Next, QELEEEIDELYENFCKHNGSKNVF [K8D]: 3.41; QELEEEIWELYENFCKHNGSKNVF [K8W]: 2.68.
In the case of QELEEEIVELYENFCKHNGSKNVF [K8V] it was 3.19.
QELEEEIAELYENFCKHNGSKNVF [K8A]: the protein stability index was determined as 2.96.
Next, QELEEEIKELYENFCLHNGSKNVF [K16L]: 3.09; QELEEEIKELYENFCAHNGSKNVF [K16A]: 3.17; QELEEEIKELYENFCIHNGSKNVF [K16I]: 2.86.
In the case of QELEEEIKELYENFCFHNGSKNVF [K16F] it was 3.11; in that of QELEEEIKELYENFCEHNGSKNVF [K16E], 3.81.
Turning to QELEEEIKELYENFCGHNGSKNVF [K16G], the protein stability index turned out to be 3.51.
Next, QELEEEIKELYENFCCHNGSKNVF [K16C]: 3.43.
Next, QELEEEIKELYENFCDHNGSKNVF [K16D]: 3.53; QELEEEIKELYENFCHHNGSKNVF [K16H]: 2.74; QELEEEIKECYENFCKHNGSKNVF [L10C]: 4.14.
Next, QELEEEIKEGYENFCKHNGSKNVF [L10G]: 4.41; QELEEEIKERYENFCKHNGSKNVF [L10R]: 4.2; QELEEEIKEWYENFCKHNGSKNVF [L10W]: 3.06.
Turning to QELEEEIKEMYENFCKHNGSKNVF [L10M], the protein stability index was determined as 3.02.
Next, QELEEEIKEDYENFCKHNGSKNVF [L10D]: 4.46; QELEEEIKEFYENFCKHNGSKNVF [L10F]: 3.23; QELEEEIKEIYENFCKHNGSKNVF [L10I]: 3.14.
Next, QELEEEIKEQYENFCKHNGSKNVF [L10Q]: 3.88; QELEEEIKEAYENFCKHNGSKNVF [L10A]: 3.48; QELEEEIKEVYENFCKHNGSKNVF [L10V]: 4.12.
In the case of QELEEEIKETYENFCKHNGSKNVF [L10T] it was 4.54.
For the variant QELEEEIKEKYENFCKHNGSKNVF [L10K], the protein stability index came to 3.92.
Consider QELEEEIKEHYENFCKHNGSKNVF [L10H], for which the protein stability index amounted to 4.33.
In the case of QELEEEIKENYENFCKHNGSKNVF [L10N] it was 4.05.
Next, QELEEEIKEPYENFCKHNGSKNVF [L10P]: 4.23; QELEEEIKESYENFCKHNGSKNVF [L10S]: 4.25.
Consider QELEEEIKEEYENFCKHNGSKNVF [L10E], for which the protein stability index was found to be 4.5.
Next, QELEEEIKEYYENFCKHNGSKNVF [L10Y]: 3.92; QELEEEFKELYENFCKHNGSKNVF [I7F]: 3.49.
Next, QELEEEPKELYENFCKHNGSKNVF [I7P]: 4.5; QELEEENKELYENFCKHNGSKNVF [I7N]: 4.52; QELEEERKELYENFCKHNGSKNVF [I7R]: 4.17.
In the case of QELEEECKELYENFCKHNGSKNVF [I7C] it was 4.23; in that of QELEEETKELYENFCKHNGSKNVF [I7T], 4.24.
As for QELEEEDKELYENFCKHNGSKNVF [I7D], the protein stability index turned out to be 4.81.
In the case of QELEEELKELYENFCKHNGSKNVF [I7L] it was 3.03; in that of QELEEEQKELYENFCKHNGSKNVF [I7Q], 4.5; in that of QELEEEWKELYENFCKHNGSKNVF [I7W], 2.26.
On to QELEEEGKELYENFCKHNGSKNVF [I7G], for which the protein stability index came out at 4.73.
In the case of QELEEEHKELYENFCKHNGSKNVF [I7H] it was 4.28; in that of QELEEEYKELYENFCKHNGSKNVF [I7Y], 4.21; in that of QELEEEVKELYENFCKHNGSKNVF [I7V], 3.75.
In the case of QELEEEEKELYENFCKHNGSKNVF [I7E] it was 4.94; in that of QELEEEMKELYENFCKHNGSKNVF [I7M], 3.8; in that of QELEEESKELYENFCKHNGSKNVF [I7S], 4.09.
With QELEEEKKELYENFCKHNGSKNVF [I7K], the protein stability index came to 4.71.
In the case of QELEEEAKELYENFCKHNGSKNVF [I7A] it was 4.55.
Next, QELEEEIKRLYENFCKHNGSKNVF [E9R]: 2.59; QELEEEIKFLYENFCKHNGSKNVF [E9F]: 1.86.
Next, QELEEEIKWLYENFCKHNGSKNVF [E9W]: 2.41.
As to QELEEEIKQLYENFCKHNGSKNVF [E9Q], the protein stability index stood at 2.22.
Next, QELEEEIKILYENFCKHNGSKNVF [E9I]: 1.95; QELEEEIKNLYENFCKHNGSKNVF [E9N]: 2.77; QELEEEIKVLYENFCKHNGSKNVF [E9V]: 2.4.
In the case of QELEEEIKDLYENFCKHNGSKNVF [E9D], the protein stability index amounted to 3.39.
In the case of QELEEEIKLLYENFCKHNGSKNVF [E9L], the protein stability index amounted to 1.64.
In the case of QELEEEIKTLYENFCKHNGSKNVF [E9T] it was 2.59.
Next, QELEEEIKALYENFCKHNGSKNVF [E9A]: 2.37.
In the case of QELEEEIKKLYENFCKHNGSKNVF [E9K] it was 2.38.
For the variant QELEEEIKSLYENFCKHNGSKNVF [E9S], the protein stability index is 2.39.
In the case of QELEEEIKGLYENFCKHNGSKNVF [E9G] it was 2.44; in that of QELEEEIKMLYENFCKHNGSKNVF [E9M], 2.47.
In the case of QELEEEIKPLYENFCKHNGSKNVF [E9P] it was 3.24; in that of QELEEEIKCLYENFCKHNGSKNVF [E9C], 2.69; in that of QELEEEIKYLYENFCKHNGSKNVF [E9Y], 2.09.
Next, QELEEEIKHLYENFCKHNGSKNVF [E9H]: 2.27.
